Test results: US20240261333A1 (published 2024)

T1: SYNCRIP (human, UniProt O60506-3 2-562, limits assumed)
T1 construct: also called NP_001153148.1 (+1)
T1 sequence (looked up): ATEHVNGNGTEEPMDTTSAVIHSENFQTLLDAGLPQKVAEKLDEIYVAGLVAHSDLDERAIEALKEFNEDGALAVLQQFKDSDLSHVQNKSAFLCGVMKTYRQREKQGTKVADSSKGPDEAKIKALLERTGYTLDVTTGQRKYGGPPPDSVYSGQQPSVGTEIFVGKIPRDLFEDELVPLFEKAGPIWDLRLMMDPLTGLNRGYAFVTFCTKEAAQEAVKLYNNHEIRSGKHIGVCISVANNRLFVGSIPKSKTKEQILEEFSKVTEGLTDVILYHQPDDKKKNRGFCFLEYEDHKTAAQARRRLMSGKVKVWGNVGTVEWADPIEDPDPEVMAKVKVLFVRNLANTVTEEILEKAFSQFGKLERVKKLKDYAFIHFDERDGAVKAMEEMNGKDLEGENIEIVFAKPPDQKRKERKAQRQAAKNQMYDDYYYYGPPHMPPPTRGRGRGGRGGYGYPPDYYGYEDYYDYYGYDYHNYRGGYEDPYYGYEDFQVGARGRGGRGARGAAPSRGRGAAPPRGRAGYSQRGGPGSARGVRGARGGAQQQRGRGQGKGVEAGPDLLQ

T2: PUF60 (human, UniProt Q9UHX1 1-559, limits assumed)
T2 construct: also called NP_016868724.1
T2 sequence (looked up): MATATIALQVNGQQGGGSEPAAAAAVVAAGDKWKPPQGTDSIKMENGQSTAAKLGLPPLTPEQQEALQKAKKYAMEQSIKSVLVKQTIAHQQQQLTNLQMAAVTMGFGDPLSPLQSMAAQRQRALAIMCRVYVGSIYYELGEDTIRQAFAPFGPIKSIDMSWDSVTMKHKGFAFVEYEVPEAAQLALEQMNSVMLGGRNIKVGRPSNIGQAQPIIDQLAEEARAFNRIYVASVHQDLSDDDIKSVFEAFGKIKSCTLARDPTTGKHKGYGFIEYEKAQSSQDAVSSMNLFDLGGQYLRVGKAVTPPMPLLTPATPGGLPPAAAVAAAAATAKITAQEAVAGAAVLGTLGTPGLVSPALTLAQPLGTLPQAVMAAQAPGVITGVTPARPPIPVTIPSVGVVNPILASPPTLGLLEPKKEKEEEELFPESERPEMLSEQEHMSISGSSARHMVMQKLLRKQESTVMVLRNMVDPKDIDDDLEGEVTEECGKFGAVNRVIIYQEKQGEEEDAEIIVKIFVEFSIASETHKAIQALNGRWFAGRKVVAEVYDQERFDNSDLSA

T3: SPARC (human, UniProt P09486 18-303)
T3 construct: also called NP_001296372.1 (+1)
T3 sequence (looked up): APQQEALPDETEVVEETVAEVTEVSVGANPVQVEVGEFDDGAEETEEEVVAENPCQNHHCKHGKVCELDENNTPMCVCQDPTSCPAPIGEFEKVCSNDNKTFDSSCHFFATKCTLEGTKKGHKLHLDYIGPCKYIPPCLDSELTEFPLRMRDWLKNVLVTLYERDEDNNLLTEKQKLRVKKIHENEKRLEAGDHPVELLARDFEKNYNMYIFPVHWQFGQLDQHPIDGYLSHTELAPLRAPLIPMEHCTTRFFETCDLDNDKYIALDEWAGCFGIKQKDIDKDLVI

B1: N-terminal FLAG tagged B3GNT2 (enzyme, human, UniProt Q9NY97 1-397, looked up)
chain: MSVGRRRIKLLGILMMANVFIYFIMEVSKSSSQEKNGKGEVIIPKEKFWKISTPPEAYWNREQEKLNRQYNPILSMLTNQTGEAGRLSNISHLNYCEPDLRVTSVVTGFNNLPDRFKDFLLYLRCRNYSLLIDQPDKCAKKPFLLLAIKSLTPHFARRQAIRESWGQESNAGNQTVVRVFLLGQTPPEDNHPDLSDMLKFESEKHQDILMWNYRDTFFNLSLKEVLFLRWVSTSCPDTEFVFKGDDDVFVNTHHILNYLNSLSKTKAKDLFIGDVIHNAGPHRDKKLKYYIPEVVYSGLYPPYAGGGGFLYSGHLALRLYHITDQVHLYPIDDVYTGMCLQKLGLVPEKHKGFRTFDIEEKNKNNICSYVDLMLVHSRKPQEMIDIWSQLQSAHLKC
notes: FLAG-tagged ORF overexpressed in cells; pulled down from lysate with mouse anti-FLAG; also called N-FLAG B3GNT2; N-term FLAG; not shown: N-terminal FLAG tag
B2: N-terminal FLAG tagged B3GNT2 (enzyme, human, UniProt Q9NY97 1-397, looked up)
chain: B1 chain
notes: FLAG-tagged ORF overexpressed in A375 cells; pulled down from the lysate with mouse anti-FLAG; also called N-FLAG B3GNT2; N-term FLAG; not shown: N-terminal FLAG tag

How the values were obtained:
Assay in all cases: co-IP with anti-FLAG, N-FLAG B3GNT2, mass spectrometry
[1] = target: T1, SYNCRIP
[2] = target: T4, LGALS7B (human, UniProt P47929 1-136)
T4 construct: also called NP_001035972.1

[3] = target: T2, PUF60
[4] = target: RPL6 (human, UniProt Q02878 2-288)
[5] = target: T5, RUVBL2 (human, UniProt Q9Y230 2-463)
T5 construct: also called NP_006657.1

[6] = target: T3, SPARC

T5 sequence (Q9Y230 2-463 limits assumed): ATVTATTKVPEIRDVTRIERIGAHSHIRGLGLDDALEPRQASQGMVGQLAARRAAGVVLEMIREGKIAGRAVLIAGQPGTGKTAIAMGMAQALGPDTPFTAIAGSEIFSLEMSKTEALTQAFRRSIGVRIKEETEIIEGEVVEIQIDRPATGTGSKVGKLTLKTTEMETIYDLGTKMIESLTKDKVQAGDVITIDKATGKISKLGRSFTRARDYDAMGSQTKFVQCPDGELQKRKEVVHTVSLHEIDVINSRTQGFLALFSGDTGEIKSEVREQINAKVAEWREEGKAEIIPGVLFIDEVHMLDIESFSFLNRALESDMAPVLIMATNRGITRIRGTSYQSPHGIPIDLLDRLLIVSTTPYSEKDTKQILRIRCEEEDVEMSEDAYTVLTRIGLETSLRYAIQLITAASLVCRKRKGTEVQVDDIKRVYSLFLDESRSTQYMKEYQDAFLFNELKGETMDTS
T4 sequence (P47929 whole entry): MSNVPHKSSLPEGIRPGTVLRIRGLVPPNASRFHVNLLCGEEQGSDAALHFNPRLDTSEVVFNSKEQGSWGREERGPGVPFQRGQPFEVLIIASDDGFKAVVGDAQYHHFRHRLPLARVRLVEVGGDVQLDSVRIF

Binder | co-IP mass spectrometry count [1] | co-IP mass spectrometry count [2] | co-IP/MS count, N-term FLAG [3] | co-IP/MS count, N-term FLAG [4] | co-IP/MS count, N-term FLAG [5] | co-IP/MS count, N-term FLAG [6]
B1 | 2 | 7 |  |  |  | 
B2 |  |  | 6 | 10 | 0 | 0
